B1: 鼠单克隆抗体1A7 (antibody, V domains shown)
VH: EVKLEESGGGLVQPGGSMKLSCVASGFAFSNYWMNWVRQSPEKGLEWVAEIRLKSNNYATHYAESVKGRFTISRDDSKSSVDLQMNNLRAEDTGTYYCNPFFYDYGYWGQGTTLTVSS
VL: QIVLTQSPAILSASPGEKVTISCSASSSVSYMYWYQQKPGSSPKPWIYRTSNLASGVPARFSGSGSGTSYSLTISSMEAEDAATYYCQQYHSYPRTFGGGTKLEIK
B2: 鼠单克隆抗体3G10 (antibody, part only; not given: Light chain variable domain, V domains shown, part only)
VH: EVQLQQSGAELVKPGASVKLSCTASGFNIKDSYIHWVTQRPDQGLEWIGMIDPTNDNIRYDPKFQGRATITADTSSNTAYLQLSSLTSEDTAVYFCARDGTSLDYWGQGTSLTVSS

Molecular target: 人源PGII蛋白 (human pepsinogen II from human gastric mucosa, Lee Biosolutions, cat. 440-50) (human) (UniProt P20142)
Sequence of UniProt P20142 (P20142 17-388): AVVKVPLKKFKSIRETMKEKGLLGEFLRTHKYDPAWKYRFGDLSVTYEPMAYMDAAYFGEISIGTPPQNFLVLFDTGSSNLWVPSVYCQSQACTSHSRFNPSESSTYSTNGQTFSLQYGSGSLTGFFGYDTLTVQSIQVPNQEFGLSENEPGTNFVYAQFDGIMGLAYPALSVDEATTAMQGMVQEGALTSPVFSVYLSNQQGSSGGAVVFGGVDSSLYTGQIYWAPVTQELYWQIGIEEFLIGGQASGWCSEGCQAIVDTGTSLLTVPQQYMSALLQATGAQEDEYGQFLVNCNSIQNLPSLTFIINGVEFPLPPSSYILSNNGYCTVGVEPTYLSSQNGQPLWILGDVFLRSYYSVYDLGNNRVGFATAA
Assay: indirect ELISA, human-derived PGII coated 2 μg/mL, culture supernatant diluted 50-fold

Binder	OD450
B1	1.7 OD450
B2	1.72 OD450
